# From patent US20140087995A1 (published 2014)
# Numbered stars: 1 amine (or outer) side, 2 acyl side, 3 side chain; on linkers, the order of the positions; unused ones are H or OH. Bridge positions count the residues as written; N and C are the ends. Square brackets hold non-standard residues; d marks the D form. Side chains are listed from the residue outwards. Ends that are not written are not given here. * marks the point of attachment. C20 diacid = O=C(O)CCCCCCCCCCCCCCCCCCC(=O)*; γGlu = O=C(O)[C@H](CCC(=O)[*:2])N[*:1]
# T1: human calcitonin receptor (human, UniProt P30988 25-474)
# T1 construct: whole, on cells; Membranes of BHK cells stably transfected with the human calcitonin receptor (Assay VII); also called hCTR; hCT
# T1 sequence (looked up): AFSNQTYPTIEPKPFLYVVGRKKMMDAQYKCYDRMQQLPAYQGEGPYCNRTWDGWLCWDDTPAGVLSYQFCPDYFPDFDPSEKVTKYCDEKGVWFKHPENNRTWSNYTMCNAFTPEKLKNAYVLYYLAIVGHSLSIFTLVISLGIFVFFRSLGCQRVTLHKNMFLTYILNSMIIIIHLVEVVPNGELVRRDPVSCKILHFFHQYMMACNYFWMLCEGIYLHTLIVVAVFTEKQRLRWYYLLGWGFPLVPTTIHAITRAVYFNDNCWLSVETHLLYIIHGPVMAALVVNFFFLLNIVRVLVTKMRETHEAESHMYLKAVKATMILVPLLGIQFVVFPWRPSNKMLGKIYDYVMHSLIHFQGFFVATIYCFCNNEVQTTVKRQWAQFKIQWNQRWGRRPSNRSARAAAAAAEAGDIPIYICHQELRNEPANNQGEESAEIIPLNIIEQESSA
# Assays:
# [1] = target: T1, human calcitonin receptor; experiment: SPA competition against 125I-calcitonin, membranes of BHK cells with human calcitonin receptor (Assay VII)
# Description: Membranes were prepared in the following way; the cells were rinsed with PBS and incubated with Versene for approximately 5 min before harvesting. The cells were flushed with PBS and the cell-suspension was centrifuged for 5 min at 1000 rpm. Cells were homogenized (Ultrathurrax) in a buffer containing 20 mM Na-HEPES and 10 mM EDTA (pH 7.4) and centrifuged at 20.000 rpm for 15 min. The resulting pellet was resuspended, homogenized and centrifuged (20.000 rpm, 15 min) in a buffer containing 20 mM Na-HEPES and 0.1 mM EDTA (pH 7.4, buffer 2). The resulting pellet was resuspended in buffer 2 and protein concentration was measured (BCA protein Assay, Pierce). The homogenate was kept cold during the whole procedure. The membranes were kept at −80° C. until use. Assay was performed in a 384 well Optiplate (PerkinElmer) in a total volume of 40 ul. Membranes were mixed with SPA beads. Final concentration of membranes 35 ng/μL final and Final concentration of SPA beads was 0.05 mg/well. Test-compounds were dissolved in DMSO and further diluted in assay buffer (50 mM Hepes, pH 7.4, 1 mM CaCl2, 5 mM MgCl₂, 0.1% OA and 0.02% Tween20). […] The final mixture was incubated for 120 min with shaking at 400 rpm at 25° C. prior to centrifugation (1500 rpm, 10 min). Samples were analyzed on TopCounter™ (Packard). The […] was calculated using (one site binding competition analysis) GraphPad Prism5 as a measure of receptor affinity.
# [2] = target: T1, human calcitonin receptor; experiment: ratio of IC50 at hCTR over IC50 at hAmylin-R (SPA competition assays)
# Description: The resulting pellet was resuspended, homogenized and centrifuged (20.000 rpm, 15 min) in a buffer containing 20 mM Na-HEPES and 0.1 mM EDTA (pH 7.4, buffer 2). The resulting pellet was resuspended in buffer 2 and protein concentration was measured (BCA protein Assay, Pierce). The homogenate was kept cold during the whole procedure. The membranes were kept at −80° C. until use. The assay was performed in a 384 well Optiplate (PerkinElmer) in a total volume of 40 ul. Membranes were mixed with SPA beads. Final concentration of membranes 35 ng/μL final and SPA beads was 0.05 mg/well. Test-compounds were dissolved in DMSO and further diluted in assay buffer (50 mM Hepes, pH 7.4, 1 mM CaCl2, 5 mM MgCl₂, 0.1% OA and 0.02% Tween20). […] The final mixture was incubated with shaking at 400 rpm for 120 min at 25° C. prior to centrifugation (1500 rpm, 10 min). Samples were analyzed on TopCounter™ (Packard). The IC₅₀ was calculated using (one site binding competition analysis) GraphPad Prism5 as a measure of receptor affinity.
# Membranes were prepared in the following way; the cells were rinsed with PBS and incubated with Versene for approximately 5 min before harvesting. The cells were flushed with PBS and the cell-suspension was centrifuged for 5 min at 1000 rpm. Cells were homogenized (Ultrathurrax) in a buffer containing 20 mM Na-HEPES and 10 mM EDTA (pH 7.4) and centrifuged at 20.000 rpm for 15 min. The resulting pellet was resuspended, homogenized and centrifuged (20.000 rpm, 15 min) in a buffer containing 20 mM Na-HEPES and 0.1 mM EDTA (pH 7.4, buffer 2). The resulting pellet was resuspended in buffer 2 and protein concentration was measured (BCA protein Assay, Pierce). The homogenate was kept cold during the whole procedure. The membranes were kept at −80° C. until use. Assay was performed in a 384 well Optiplate (PerkinElmer) in a total volume of 40 ul. Membranes were mixed with SPA beads.
Binder,IC50 [1],Ratio hCT/hAmylin binding [2]
"K([γGlu-γGlu-C20 diacid])CNTATCATQRLA[dD]FLRHSSPNFGAIPSSTNVGSRTY-NH2 (disulfide 2-7; N-terminus assumed; SMILES CC[C@H](C)[C@H](NC(=O)[C@H](C)NC(=O)CNC(=O)[C@H](Cc1ccccc1)NC(=O)[C@H](CC(N)=O)NC(=O)[C@@H]1CCCN1C(=O)[C@H](CO)NC(=O)[C@H](CO)NC(=O)[C@H](Cc1c[nH]cn1)NC(=O)[C@H](CCCNC(=N)N)NC(=O)[C@H](CC(C)C)NC(=O)[C@H](Cc1ccccc1)NC(=O)[C@@H](CC(=O)O)NC(=O)[C@H](C)NC(=O)[C@H](CC(C)C)NC(=O)[C@H](CCCNC(=N)N)NC(=O)[C@H](CCC(N)=O)NC(=O)[C@@H](NC(=O)[C@H](C)NC(=O)[C@@H]1CSSC[C@H](NC(=O)[C@@H](N)CCCCNC(=O)CC[C@H](NC(=O)CC[C@H](NC(=O)CCCCCCCCCCCCCCCCCCC(=O)O)C(=O)O)C(=O)O)C(=O)N[C@@H](CC(N)=O)C(=O)N[C@@H]([C@@H](C)O)C(=O)N[C@@H](C)C(=O)N[C@@H]([C@@H](C)O)C(=O)N1)[C@@H](C)O)C(=O)N1CCC[C@H]1C(=O)N[C@@H](CO)C(=O)N[C@@H](CO)C(=O)N[C@H](C(=O)N[C@@H](CC(N)=O)C(=O)N[C@H](C(=O)NCC(=O)N[C@@H](CO)C(=O)N[C@@H](CCCNC(=N)N)C(=O)N[C@H](C(=O)N[C@@H](Cc1ccc(O)cc1)C(N)=O)[C@@H](C)O)C(C)C)[C@@H](C)O, Residue 14 is D-aspartic acid (printed 14d))",112 nM,–
"{C20 diacid-γGlu}-GRCNTATCATQRLAHFLRHSSPNFGAIPSSTNVGHNTY-NH2 (disulfide 3-8; SMILES CC[C@H](C)[C@H](NC(=O)[C@H](C)NC(=O)CNC(=O)[C@H](Cc1ccccc1)NC(=O)[C@H](CC(N)=O)NC(=O)[C@@H]1CCCN1C(=O)[C@H](CO)NC(=O)[C@H](CO)NC(=O)[C@H](Cc1c[nH]cn1)NC(=O)[C@H](CCCNC(=N)N)NC(=O)[C@H](CC(C)C)NC(=O)[C@H](Cc1ccccc1)NC(=O)[C@H](Cc1c[nH]cn1)NC(=O)[C@H](C)NC(=O)[C@H](CC(C)C)NC(=O)[C@H](CCCNC(=N)N)NC(=O)[C@H](CCC(N)=O)NC(=O)[C@@H](NC(=O)[C@H](C)NC(=O)[C@@H]1CSSC[C@H](NC(=O)[C@H](CCCNC(=N)N)NC(=O)CNC(=O)CC[C@H](NC(=O)CCCCCCCCCCCCCCCCCCC(=O)O)C(=O)O)C(=O)N[C@@H](CC(N)=O)C(=O)N[C@@H]([C@@H](C)O)C(=O)N[C@@H](C)C(=O)N[C@@H]([C@@H](C)O)C(=O)N1)[C@@H](C)O)C(=O)N1CCC[C@H]1C(=O)N[C@@H](CO)C(=O)N[C@@H](CO)C(=O)N[C@H](C(=O)N[C@@H](CC(N)=O)C(=O)N[C@H](C(=O)NCC(=O)N[C@@H](Cc1c[nH]cn1)C(=O)N[C@@H](CC(N)=O)C(=O)N[C@H](C(=O)N[C@@H](Cc1ccc(O)cc1)C(N)=O)[C@@H](C)O)C(C)C)[C@@H](C)O, also called compound 100)",66.3 nM,65.3
{C20 diacid-γGlu}-GRCNTATCATQRLAAFLRHSSPNFGAIPSSTNVGHNTY-NH2 (disulfide 3-8; SMILES CC[C@H](C)[C@H](NC(=O)[C@H](C)NC(=O)CNC(=O)[C@H](Cc1ccccc1)NC(=O)[C@H](CC(N)=O)NC(=O)[C@@H]1CCCN1C(=O)[C@H](CO)NC(=O)[C@H](CO)NC(=O)[C@H](Cc1c[nH]cn1)NC(=O)[C@H](CCCNC(=N)N)NC(=O)[C@H](CC(C)C)NC(=O)[C@H](Cc1ccccc1)NC(=O)[C@H](C)NC(=O)[C@H](C)NC(=O)[C@H](CC(C)C)NC(=O)[C@H](CCCNC(=N)N)NC(=O)[C@H](CCC(N)=O)NC(=O)[C@@H](NC(=O)[C@H](C)NC(=O)[C@@H]1CSSC[C@H](NC(=O)[C@H](CCCNC(=N)N)NC(=O)CNC(=O)CC[C@H](NC(=O)CCCCCCCCCCCCCCCCCCC(=O)O)C(=O)O)C(=O)N[C@@H](CC(N)=O)C(=O)N[C@@H]([C@@H](C)O)C(=O)N[C@@H](C)C(=O)N[C@@H]([C@@H](C)O)C(=O)N1)[C@@H](C)O)C(=O)N1CCC[C@H]1C(=O)N[C@@H](CO)C(=O)N[C@@H](CO)C(=O)N[C@H](C(=O)N[C@@H](CC(N)=O)C(=O)N[C@H](C(=O)NCC(=O)N[C@@H](Cc1c[nH]cn1)C(=O)N[C@@H](CC(N)=O)C(=O)N[C@H](C(=O)N[C@@H](Cc1ccc(O)cc1)C(N)=O)[C@@H](C)O)C(C)C)[C@@H](C)O),29.2 nM,68.6
{C20 diacid-γGlu}-GRCNTATCATQRLAHFLRHSSPNFGAIPSSTNVGPNTY-NH2 (disulfide 3-8; SMILES CC[C@H](C)[C@H](NC(=O)[C@H](C)NC(=O)CNC(=O)[C@H](Cc1ccccc1)NC(=O)[C@H](CC(N)=O)NC(=O)[C@@H]1CCCN1C(=O)[C@H](CO)NC(=O)[C@H](CO)NC(=O)[C@H](Cc1c[nH]cn1)NC(=O)[C@H](CCCNC(=N)N)NC(=O)[C@H](CC(C)C)NC(=O)[C@H](Cc1ccccc1)NC(=O)[C@H](Cc1c[nH]cn1)NC(=O)[C@H](C)NC(=O)[C@H](CC(C)C)NC(=O)[C@H](CCCNC(=N)N)NC(=O)[C@H](CCC(N)=O)NC(=O)[C@@H](NC(=O)[C@H](C)NC(=O)[C@@H]1CSSC[C@H](NC(=O)[C@H](CCCNC(=N)N)NC(=O)CNC(=O)CC[C@H](NC(=O)CCCCCCCCCCCCCCCCCCC(=O)O)C(=O)O)C(=O)N[C@@H](CC(N)=O)C(=O)N[C@@H]([C@@H](C)O)C(=O)N[C@@H](C)C(=O)N[C@@H]([C@@H](C)O)C(=O)N1)[C@@H](C)O)C(=O)N1CCC[C@H]1C(=O)N[C@@H](CO)C(=O)N[C@@H](CO)C(=O)N[C@H](C(=O)N[C@@H](CC(N)=O)C(=O)N[C@H](C(=O)NCC(=O)N1CCC[C@H]1C(=O)N[C@@H](CC(N)=O)C(=O)N[C@H](C(=O)N[C@@H](Cc1ccc(O)cc1)C(N)=O)[C@@H](C)O)C(C)C)[C@@H](C)O),7.87 nM,36.2
{C20 diacid-γGlu}-GRCNTATCATQRLAAFLRHSSPNFGAIPSSTNVGPNTY-NH2 (disulfide 3-8),3 nM,26.5
